# Test results taken from patent US20190248902A1 (published 2019).
# T1: human ASGR-1 mutant construct H203 (human, UniProt P07306 1-291)
# T1 construct: Arg/Glu scanning: non-arginine residues were changed to arginine; Transiently expressed on CHO-S cells
# T1 sequence: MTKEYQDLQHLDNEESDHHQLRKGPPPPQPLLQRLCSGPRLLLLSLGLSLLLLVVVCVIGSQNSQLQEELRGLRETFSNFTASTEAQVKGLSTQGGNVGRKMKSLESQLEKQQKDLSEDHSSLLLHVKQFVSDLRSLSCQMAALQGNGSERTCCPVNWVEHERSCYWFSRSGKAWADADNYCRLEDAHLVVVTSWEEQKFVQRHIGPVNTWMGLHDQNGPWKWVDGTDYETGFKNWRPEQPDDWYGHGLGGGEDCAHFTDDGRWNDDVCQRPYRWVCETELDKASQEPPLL
# T2: soluble human ASGR-1 carbohydrate binding domain (CBD; amino acid residues 154-281; N-terminal 6xHis tag) (human, UniProt P07306 154-281)
# T2 construct: also called ASGR-1 CBD
# T2 sequence: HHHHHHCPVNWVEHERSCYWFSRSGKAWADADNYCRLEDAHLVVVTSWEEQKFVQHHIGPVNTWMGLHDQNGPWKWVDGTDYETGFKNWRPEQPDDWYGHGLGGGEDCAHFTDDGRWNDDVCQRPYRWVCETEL
# Experiments:
# [1] = biological target: T1, human ASGR-1 mutant construct H203; experiment: FACS ratio: H203 normalized value / wt normalized value
# In short: (§1)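 Transiently transfected CHO-S cells expressing wild-type or mutant hASGR-1 incubated with antibody at 5 ug/ml, 1 h at 4 °C; bound antibody detected by Alexa Fluor 647 anti-Fc plus 7-AAD, by flow cytometry. Binding normalized to expression using an unaffected antibody (65C12), then to wild type; hits defined as >3× IQR above third quartile.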
# [2] = biological target: T1, human ASGR-1 mutant construct H203; experiment: FACS, transfected CHO-S cells, mAb 5 ug/ml
# In short: as §1
# [3] = biological target: T2, soluble human ASGR-1 carbohydrate …; experiment: Octet BLI, mAb on AR2G tips, 1:1 fit
# Source text: To quantitate the binding affinity of specific antibodies for ASGR-1 (either purified from hybridoma supernatants or made recombinantly), association and dissociation rates can be measured using a ForteBio Octet instrument. […] Experimental kinetic results were globally fit to a 1:1 binding model in order to determine the association and dissociation rate constants as well as the equilibrium dissociation constant. Association and dissociation times were chosen to ensure that curvature was present during association curves and measured dissociation levels dropped at least 5% from starting levels. All Octet buffers contained 10 mM Tris (pH7.5), 150 mM NaCl, 1 mM CaCl₂), 0.10 mg/ml BSA and 0.13% Triton X-100. Octet assays were run at 27° C. Because this assay only measures binding to the ASGR-1 CBD, antibodies that recognize epitopes partially or entirely outside the CBD and/or recognize ASGR-1 in the context of a native ASGR complex, for example, as could occur on cell membranes, may not score as positive in this assay.
Binder,Normalization to wt ASGR1 Binding [1],FACS Binding Geomean [2],Kd [3] [nM]
"218G4 (antibody, V domains shown, mAb) VH: QVQLVESGGGVVQPGRSLRLSCAASGFTFSSYGLHWVRQAPGKGLEWVAVIWYDGSNKYYADSVKGRFTISRDNSKNTLYLQMNSLRVEDTAVYYCANWYYYYYGMDVWGQGTTVTVSS VL: QSVLTQPPSVSAAPGQKVTISCSGSSSNIGNNYVSWYQQLPGTAPKLLLYDSNKRPSGIPARFSGSKSGTSATLGITGLQTGDEADYYCGTWDSSLNTVVFGGGTKLTVL",0.707,7930,2.6
"6G7 (antibody, V domains shown, mAb) VH: QVQLVESGGGVVQPGRSLRLSCAASGFTFSSYGMHWVRQTPGKGLEWVAIISYVGKNKYYADSVKGRFTISRDNSKNTLYLQMNSLRAEDTAVYYCARRGNSYGGYGMDVWGQGTTVTVSS VL: DIQMTQSPSSRSASVGDRVTITCQASQDISNYLNWCQQKPGKALKLLIYDASTLETGVPSRFSGSGSGTDFTFTISSVQPEDIATYYCQQYDNVPITFGQGTRLEIK",1.18,15100,2
"176H4 (antibody, V domains shown, mAb) VH: QVQLVESGGGVVQPGRSLRLSCAASGFTFSSYGMHWVRQAPGKGLEWVAIIWYDGSYKYYADSVKGRFTISRDNSKNTLYLQMSSLRAEDTAVYYCARDAHDFWSGYFAYWGQGALVTVSS VL: DIVMTQTPLSLSVTPGQPASISCKSSQSLLHGDGKTYLYWYLQKPGQPPQLLIYEVSNRFSGVPDRFSGSGSGTDFTLKISRVEAEDVGIYYCMQSIQIPWTFGQGTRVEIK",1.5,10200,0.8
"22G5 (antibody, V domains shown, mAb) VH: EVQLLESGGGLVQPGGSLRLSCAASGFTFSSYAMNWVRQAPGMGLEWVSVISRSGGYTYYADSVKGRFTISRDNSKNTLYLQMNSLRAEDTAVYYCASRLAVAGSEAFDIWGQGTLVTVSS VL: DIQMTQSPSSLSASVGDRVTITCRASQNISSYLNWYQQKQGKAPKLLIYAASSLQNGVPSRFSGRGSGTDFTLTISSLQPEDFATYYCQQSYRTPLFTFGPGTKVDFK",1.37,15100,1.4
"194A4 (antibody, V domains shown, mAb) VH: QVQLVQSGTEVKKPGASLKVSCKASGYTFTVYYLNWVRQAPGQGLEWMGWINPNSGGTNYAQKFQGRVTMTRDTSISTAYMELSRLRSDDTAVYYCARGYDILTGWGQGTLVTVSS VL: EIVLTQSPGTLSLSPGERATLSCRASRGVSNIYLAWYQQKPGQAPRLLIYGASNRATGIPDRFSGSGSGTDFTLTISRLEPEDFAVYYCQHNDYSMFTFGPGTKVDIK",0.616,12100,0.7
"190F8 (antibody, V domains shown, mAb) VH: QVQLVESGGGVVQPGRSLRLSCAASGFTFSTYGMHWVRQAPGKGLEWVAVIWYDGSNKNYADSVKGRFTISRDNSKNTLYLQMNSLRAEDTAVYYCARDQGVGYDGLDVWGQGTTVTVSS VL: DIQMTQSPSSLSASVGDRVTITCRTSQGIGNYLAWFQQKPGKAPKSLLYKASSLQSGVPSKFSGSGSGTDFTLTISSLQPEDFATYYCQQYMTYPLTFGGGTKVEIK",1.11,15100,0.6
"194C1 (antibody, V domains shown, mAb) VH: QVQLVESGGGVVQPGRSLRLSCAASGFTFSSYGMHWVRQAPGKGLEWVAVIWYDGSNEHYADSVKGRFTISRDNSKNTLYLQMNSLRAEDTAVYYCARNRGVGYYGLDVWGQGTTVTVSS VL: DIQMTQSPSSLSASVGDRVTITCRASQGISNYLAWFQQKPGKAPKSLIYAASSLQSGVPSKFSGSGSGTDFTLTISSLQPEDFATYYCLHYLTYPLTFGGGTKVEIK",0.868,11000,1.3
"197G3 (antibody, V domains shown, mAb) VH: QVQLVESGGGVVQPGRSLRLSCVASGFTFSSHGMHWVRQAPGKGLEWVAVIWYDGSNKNYADSVKGRFTISRDNSKNTLYLQMNSLRAEDTAVYYCARDPSVGYDGMDVWGQGTTVTVSS VL: DIQMTQSPSSLSASVGDRVTITCRASQGIGNHLAWFQQKPGKAPKSLIYAASSLQSGVPSKFSGSRSGTDFSLTISSLQPEDFATYYCQQYSNYPVTFGPGTKVDIK",1.75,3500,0.8
"191G1 (antibody, V domains shown, mAb) VH: QVQLVESGGGVVQPGRSLRLSCAASGFTFSSYGMHWVRQAPGKGLEWVAVIWYDGSNEHYADSVKGRFTISRDNSKNTLYLQMNSLRAEDTAVYYCARDRGVGYYGLDVWGQGTTVTVSS VL: DIQMTQSPSSLSASVGDRVTITCRASQGISNYLAWFQQKPGKAPKSLIYAASSLQSGVPSKFSGSGSGTDFTLTISSLQPEDFATYYCQHYLTYPLTFGGGTKVEIK",1.07,10900,2.4

# Stronger by Kd [3], values ahead:
Normalization to wt ASGR1 Binding [1],FACS Binding Geomean [2],Kd [3] [nM],Binder
0.893,18800,0.5,"72G9 (antibody, V domains shown, mAb) VH: EVQLVESGGGLVKPGGSLRLSCAASGFTFSSYSMNWVRQAPGKGLEWVSSISGSSSYIYYADSVKGRFTISRDNAKNSLYLQMNSLRAEDTAVYFCARGGSRGFDPWGQGTLVTVSS VL: DIQMTQSPSSLSASVGDRVTITCRASQSITSYLNWYQQKPGKAPKLLIYTASSLQSGVPSRFSGSGSGTDFTLTISSLQPEDFATYYCQQSHSFPFTFGPGTKVDIK"
0.912,17000,0.5,"191G10 (antibody, V domains shown, mAb) VH: QVQLVESGGGVVQPGRSLRLSCAASGFTFSSYGMHWVRQAPGKGLEWVAVIWYDGSNKNYADSVKGRFTISRDNSKNTLYLQMNSLRAEDTAVYYCARDQGVGYDGLDVWGQGTTVTVSS VL: DIQMTQSPSSLSASVGDRVTITCRTSQGIGKYLAWFQQKPGKAPKSLLYKVSSLQSGVPSKFSGSGSGTDFTLTISSLQPEDFATYYCQQYMTYPLTFGGGTKVEIK"
1.07,18400,0.3,"184E7 (antibody, V domains shown, mAb) VH: QVQLVQSGAEVKTPGASVKVSCRASGYTFTSYNMHWVRQVPGQGLEWMGWINPNNGGSNYTQKFQGRVTMTRDTSISTAYMELSRLRSDDTAVYYCARKFGDWGQGTLVTVSS VL: DIQMTQSPSSRSASIGERVTITCRASQGISNYLAWIQQKPGTAPKSLIYAASSLQSGVSSRFSGSGFGTDFTITISSVQREDFATYYCQQYNGYPFTFGHGTKVDIK"
1.18,20500,0.3,"48B12 (antibody, V domains shown, mAb) VH: EVQLLESGGGLVQPGGSLRLSCAASGFTFSSYAMNWVRQAPGKGLEWVSAISGRGGNTFYADSVKGRFTISRDNSKNTLYLQMNSLRAEDTAVYYCAKRETYNWNYEGFDYWGQGTLVTVSS VL: SYELTQPPSVSVSPGQTARITCSGDALPKKYAYWYQQKSGQAPVLVIYEDSKRPSGIPERFSGSSSGTMATLTISGAQVEDEADYYCNSTDSSGNHVVFGGGTKLTVL"
0.75,13100,0.04,"198G3 (antibody, V domains shown, mAb) VH: QVQLVESGGGVVQPGRSLKLSCAASGFTFSTYGMHWVRQAPGKGLEWVAVIWYDGTNKNYADSVKGRFTISRDNSKNTLCLQMNSLRAEDTAVYYCARDQGVGYDGLDVWGQGTTVTVSS VL: DIQMAQSPSSLSASVGDRVTITCRTSQGIGKYLAWFQQKPGKAPKSLLYKASSLQGGVPSKFSGSGSGTDFTLTISSLQPEDFATYYCQQYMTYPLTFGGGTKVEIK"
1.27,20000,0.03,"25A4 (antibody, V domains shown, mAb) VH: QVLLVQSGAEVKRPGASVKVSCKASGYTFTNYDINWVRQATGQGLEWMGWMYPNSGNTGYAQKFQGRVTMTRNTSISTAYMELSSLRSEDTAVYYCASSSGWYYFDYWGQGTLVTVSS VL: DIVMTQFPDSLAVSLGERATIKCKSSQSVLYSSHNNNYLAWYQQKPGQPPKLLLYWASTRESGVPDRFSGSGSGTEFTLTISSLEAEDVAVYYCQQYYSTPPTFGQGTKVEIK"
